In this experiment the target is mutant ferritin light chain p.Phe167SerfsX26 (MT-FTL) homopolymer (human) (UniProt P02792). The experiment can be described thus: SEC. A general note: In gel filtration, larger molecules generally elute earlier.

One substance from publication PMC2581579 can be followed below.

The substance “mutant ferritin light chain p.Phe167SerfsX26 (MT-FTL) homopolymer (from UniProt P02792 1-166) (natural protein)” yielded a stoichiometry N of 24.

Broadly, the stoichiometry N is a count of units in the complex or per binding partner.
